Source: doi:10.1101/847772
pKd: −log10 of the molar value.

Target: biotin-labelled M3C phenomycin (Streptomyces fervens MA 564-Cl)
Experiment: BLI

Q: With human 80S ribosome (complex) as the substance, how does the pKd read?
A: The pKd was 10.64.
